The text below walks through data of doi:10.1101/2024.08.29.610253 (2024).

The term Kd denotes the concentration at which binding is half-saturated. Read a high Kd as lower affinity.

Read-outs that look alike come from different tables or passages of the source.

The chains are these.
B1: liprin-α2_CC2N (domain or fragment)
chain: EVEQEAETARKDLIKTEEMNTKYQRDIREAMAQKEDMEERITTLEKRYLSAQRESTSIHDMNDKLENELANKEAILRQMEEKNRQLQERLELAEQKLQQTMRKAE

What all share (assay): ITC
On the technique in general: In ITC the heat of successive injections is recorded.

The target of assay [1] is RIM1_C2B L1245Q.
Assay [2] addresses RIM1_C2B L1245Q. This is another data set of the same source.
The target of assay [3] is RIM1_C2B K1240E.
Assay [4] concerns the target RIM1_C2B R1236E.
Assay [5] has as its target RIM1_C2B K1240E. This is another data set of the same source.
Assay [6] deals with RIM1_C2B R1236E. This is another data set of the same source.
In assay [7] the target is liprin-α2_CC2N E379R.
Assay [8] deals with liprin-α2_CC2N R383A.
Assay [9] concerns the target T1, liprin-α2_CC2 (human, UniProt O75334 259-542).
T1 chain: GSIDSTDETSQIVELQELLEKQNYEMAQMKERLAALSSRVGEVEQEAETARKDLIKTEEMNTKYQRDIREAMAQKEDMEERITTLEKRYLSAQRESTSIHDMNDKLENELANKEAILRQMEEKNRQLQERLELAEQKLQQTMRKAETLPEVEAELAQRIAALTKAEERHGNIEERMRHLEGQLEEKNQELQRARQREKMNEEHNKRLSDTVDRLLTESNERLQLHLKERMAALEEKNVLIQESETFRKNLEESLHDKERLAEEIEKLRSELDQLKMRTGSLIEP

For assay [10], the target named is B1.
Assay [11] has as its target liprin-α2_CC2N E379R. The source holds these as a separate data set.
Assay [12] concerns the target liprin-α2_CC2N R383A. This is another data set of the same source.
Assay [13] deals with T2, liprin-α2_CC2N E380R (human, UniProt O75334 300-404, E380R).
T2 sequence: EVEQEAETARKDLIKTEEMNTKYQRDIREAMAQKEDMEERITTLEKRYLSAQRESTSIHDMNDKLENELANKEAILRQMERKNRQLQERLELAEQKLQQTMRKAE

Assay [14] has as its target T3, liprin-α2_CC2N A350S (human, UniProt O75334 300-404, A350S).
T3 sequence: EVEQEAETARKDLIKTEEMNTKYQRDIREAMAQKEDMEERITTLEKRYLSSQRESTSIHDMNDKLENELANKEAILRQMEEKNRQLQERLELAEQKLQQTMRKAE

The target in assay [15] is T2, liprin-α2_CC2N E380R. The source holds these as a separate data set.

Regarding B1, the Kd in assay [1] was more than 100 µM; in [2] it was more than 100 µM; in assay [3], 25 µM; in assay [4], 27 µM; in assay [5], 25 µM; in assay [6] it was 27 µM.

B2: RIM1_C2B (domain or fragment)
chain: GPAQLVGRQTLATPAMGDIQIGMEDKKGQLEVEVIRARSLTQKPGSKSTPAPYVKVYLLENGACIAKKKTRIARKTLDPLYQQSLVFDESPQGKVLQVIVWGDYGRMDHKCFMGVAQILLEELDLSSMVIGWYKLFPPSSLVDPTLAPLTRRASQSSLESSSGPPCIRS
As for B2, the Kd in assay [7] worked out at 23 µM; in assay [8], 24 µM; in [9] it was 5 µM; in assay [10], 4 µM; in assay [11] it was 23 µM; in [12], 24 µM. Moreover, the Kd in [13] worked out at 8.2 µM; in assay [14], 5.7 µM; in assay [15], 8.2 µM.
